# Entries after “also recorded” stand apart in the source; their conditions may differ.
# How the values were obtained:
# [1] = Degradation of MeGlcA by H2O2 (HPAEC-PAD); assay type: physicochemical; conditions: up to 100 mM H2O2, 50 mM Tris pH 8.0, 40° C., 16 h
# Description: FIG. 10: HPAEC-PAD analyses of H2O2 effects on AxyAgu115A activity and MeGlcA degradation.
# AxyAgu115A (10 μg/mL) was incubated with 1% glucuronoxylan in 50 mM Tris buffer pH 8.0 in the presence of various H2O2 concentrations (0.01-100 mM). MeGlcA (1 mM) was also incubated with the same H2O2 concentrations. The reactions were kept in the dark at 40° C. for 16 h in a thermomixer (Eppendorf, USA). Catalase (200 μg/mL) was then added, and the reactions were kept incubating for another 30 min to remove H2O2 before HPAEC-PAD analysis.
# Even at 200 mM H2O2, GOOX-Y300A retained more than 50% of its activity on glucose and 100% of its activity on cellobiose (Vuong et al., 2016).
# [2] = Activity screening of GOOX variants and glucose oxidase on GlcA; assay type: biochemical; conditions: enzyme 16 nM, 37° C., 10 mM GlcA (FIG. 11 legend; b102 says 100 mM), 100 mM Tris pH 8.0 (GOOX variants) or 50 mM sodium acetate pH 5.0 (GO)
# Description: (§1) FIG. 11: Activity screening of GOOX variants and glucose oxidase (GO) on GlcA and MeGlcA substrates. The enzymes (16 nM) were assayed at 37° C. with 10 mM GlcA and 1 mM MeGlcA in 100 mM Tris buffer pH 8.0 (for GOOX variants) or 50 mM sodium acetate pH 5.0 (for GO). The dotted line indicates the activity of GOOX-VN for MeGlcA for ease of comparison. “CtCBM22A-wtGOOX” and “CtCBM22A-Y300A” represent fusion proteins where the C terminus of the xylan-binding protein CtCBM22A (described in Vuong and Master, 2014) is fused to the N terminus GOOX.
# (§2) The specific activity of GOOX-Y300A (16 nM) on MeGlcA and GlcA (1 mM) was measured in 50 mM Tris buffer pH 8.0 at 40° C. The amount of methyl glucaric acid was determined by measuring the release of H2O2 using a previously published colorimetric assay (Lin et al., 1991). The kinetics of GOOX-Y300A on these acidic sugars were measured at the same condition, but using up to 60 mM MeGlcA and GlcA and in 0.3 M Tris buffer pH 8.0.
# [3] = Activity screening of GOOX variants and glucose oxidase on MeGlcA; assay type: biochemical; conditions: enzyme 16 nM, 37° C., 1 mM MeGlcA (FIG. 11 legend; b102 says 10 mM), 100 mM Tris pH 8.0 (GOOX variants) or 50 mM sodium acetate pH 5.0 (GO)
# Description: as §1, §2
nmol oxidized GlcA Mean [2],nmol oxidized MeGlcA Mean [3],Molecule,loss of MeGlcA in the presence of H2O2 [1]
0.02835 nmol,0.9559 nmol,"N388S-V38A: GOOX variant with N388S and V38A relative to SEQ ID NO: 1 (protein, listed as Sarocladium strictum, (1)..(206) FAD-binding domain; (207)..(474) substrate-binding domain) NSINACLAAADVEFHEEDSEGWEMDGTAFNLRVDYDPAAIAIPRSTEDIAAAVQCGLDAGVQISAKGGGHSYGSYGFGGEDGHLMLELDRMYRVSVDDDNVATIQGGARLGYTALELLDQGNRALTHGTCPAVGIGGHVLGGGYGFATHTHGLTLDWLVGATVVLADASIVHVSKTENADLFWALRGGGGGFAIVSEFEFNTFEAPEIITTYQVTTTWNRKQHVAGLKALQDWAENTMPRELSMRLEINANALNWEGNYFGNAKDLKKVLQPIMKKAGGKSTISKLVETDWYGQINTYLYGADLNITYNYDVHEYFYANSLTAPRLSDEAISAFVDYKFDNSSVRPGRGWWIQWDFHGGKNSALASHSNDETAYAHRDQLWLWQFYDSIYDYENNTSPYPESGFEFMQGFVATIEDTLPEDRKGKYFNYADTTLDKEEAQKLYWRGNLEKLQAIKAKYDPEDVFGNVVSVEPIA",
-0.01097 nmol,0.8997 nmol,"Y72A: GOOX variant with Y72A relative to SEQ ID NO: 1 (protein, listed as Sarocladium strictum, (1)..(206) FAD-binding domain; (207)..(474) substrate-binding domain) NSINACLAAADVEFHEEDSEGWEMDGTAFNLRVDYDPVAIAIPRSTEDIAAAVQCGLDAGVQISAKGGGHSAGSYGFGGEDGHLMLELDRMYRVSVDDDNVATIQGGARLGYTALELLDQGNRALTHGTCPAVGIGGHVLGGGYGFATHTHGLTLDWLVGATVVLADASIVHVSKTENADLFWALRGGGGGFAIVSEFEFNTFEAPEIITTYQVTTTWNRKQHVAGLKALQDWAENTMPRELSMRLEINANALNWEGNYFGNAKDLKKVLQPIMKKAGGKSTISKLVETDWYGQINTYLYGADLNITYNYDVHEYFYANSLTAPRLSDEAISAFVDYKFDNSSVRPGRGWWIQWDFHGGKNSALASHSNDETAYAHRDQLWLWQFYDNIYDYENNTSPYPESGFEFMQGFVATIEDTLPEDRKGKYFNYADTTLDKEEAQKLYWRGNLEKLQAIKAKYDPEDVFGNVVSVEPIA",
-0.04572 nmol,0.9032 nmol,"wtGOOX: Wild-type gluco-oligosaccharide oxidase from Sarocladium strictum, SEQ ID NO: 1, with C-terminal myc-tag and 6xHis-tag (protein, listed as Sarocladium strictum, C-terminal myc-tag and 6xHis-tag; (1)..(206) FAD-binding domain; (207)..(474) substrate-binding domain) NSINACLAAADVEFHEEDSEGWEMDGTAFNLRVDYDPVAIAIPRSTEDIAAAVQCGLDAGVQISAKGGGHSYGSYGFGGEDGHLMLELDRMYRVSVDDDNVATIQGGARLGYTALELLDQGNRALTHGTCPAVGIGGHVLGGGYGFATHTHGLTLDWLVGATVVLADASIVHVSKTENADLFWALRGGGGGFAIVSEFEFNTFEAPEIITTYQVTTTWNRKQHVAGLKALQDWAENTMPRELSMRLEINANALNWEGNYFGNAKDLKKVLQPIMKKAGGKSTISKLVETDWYGQINTYLYGADLNITYNYDVHEYFYANSLTAPRLSDEAISAFVDYKFDNSSVRPGRGWWIQWDFHGGKNSALASHSNDETAYAHRDQLWLWQFYDNIYDYENNTSPYPESGFEFMQGFVATIEDTLPEDRKGKYFNYADTTLDKEEAQKLYWRGNLEKLQAIKAKYDPEDVFGNVVSVEPIA",
-0.02195 nmol,0.683 nmol,"Q384N: GOOX variant with Q384N relative to SEQ ID NO: 1 (protein, listed as Sarocladium strictum, (1)..(206) FAD-binding domain; (207)..(474) substrate-binding domain) NSINACLAAADVEFHEEDSEGWEMDGTAFNLRVDYDPVAIAIPRSTEDIAAAVQCGLDAGVQISAKGGGHSYGSYGFGGEDGHLMLELDRMYRVSVDDDNVATIQGGARLGYTALELLDQGNRALTHGTCPAVGIGGHVLGGGYGFATHTHGLTLDWLVGATVVLADASIVHVSKTENADLFWALRGGGGGFAIVSEFEFNTFEAPEIITTYQVTTTWNRKQHVAGLKALQDWAENTMPRELSMRLEINANALNWEGNYFGNAKDLKKVLQPIMKKAGGKSTISKLVETDWYGQINTYLYGADLNITYNYDVHEYFYANSLTAPRLSDEAISAFVDYKFDNSSVRPGRGWWIQWDFHGGKNSALASHSNDETAYAHRDQLWLWNFYDNIYDYENNTSPYPESGFEFMQGFVATIEDTLPEDRKGKYFNYADTTLDKEEAQKLYWRGNLEKLQAIKAKYDPEDVFGNVVSVEPIA",

# Continued, molecule first:
Molecule,nmol oxidized GlcA Mean [2],nmol oxidized MeGlcA Mean [3],loss of MeGlcA in the presence of H2O2 [1]
"CO[C@@H]([C@H](O)[C@@H](O)C=O)[C@H](O)C(=O)O [MeGlcA, 4-O-methyl D-glucuronic acid]",,,no loss of MeGlcA; also recorded: did not cause a loss of MeGlcA
"W351F: GOOX variant with W351F relative to SEQ ID NO: 1 (protein, listed as Sarocladium strictum, (1)..(206) FAD-binding domain; (207)..(474) substrate-binding domain) NSINACLAAADVEFHEEDSEGWEMDGTAFNLRVDYDPVAIAIPRSTEDIAAAVQCGLDAGVQISAKGGGHSYGSYGFGGEDGHLMLELDRMYRVSVDDDNVATIQGGARLGYTALELLDQGNRALTHGTCPAVGIGGHVLGGGYGFATHTHGLTLDWLVGATVVLADASIVHVSKTENADLFWALRGGGGGFAIVSEFEFNTFEAPEIITTYQVTTTWNRKQHVAGLKALQDWAENTMPRELSMRLEINANALNWEGNYFGNAKDLKKVLQPIMKKAGGKSTISKLVETDWYGQINTYLYGADLNITYNYDVHEYFYANSLTAPRLSDEAISAFVDYKFDNSSVRPGRGWFIQWDFHGGKNSALASHSNDETAYAHRDQLWLWQFYDNIYDYENNTSPYPESGFEFMQGFVATIEDTLPEDRKGKYFNYADTTLDKEEAQKLYWRGNLEKLQAIKAKYDPEDVFGNVVSVEPIA",-0.04298 nmol,0.08201 nmol,
"Q384A: GOOX variant with Q384A relative to SEQ ID NO: 1 (protein, listed as Sarocladium strictum, (1)..(206) FAD-binding domain; (207)..(474) substrate-binding domain) NSINACLAAADVEFHEEDSEGWEMDGTAFNLRVDYDPVAIAIPRSTEDIAAAVQCGLDAGVQISAKGGGHSYGSYGFGGEDGHLMLELDRMYRVSVDDDNVATIQGGARLGYTALELLDQGNRALTHGTCPAVGIGGHVLGGGYGFATHTHGLTLDWLVGATVVLADASIVHVSKTENADLFWALRGGGGGFAIVSEFEFNTFEAPEIITTYQVTTTWNRKQHVAGLKALQDWAENTMPRELSMRLEINANALNWEGNYFGNAKDLKKVLQPIMKKAGGKSTISKLVETDWYGQINTYLYGADLNITYNYDVHEYFYANSLTAPRLSDEAISAFVDYKFDNSSVRPGRGWWIQWDFHGGKNSALASHSNDETAYAHRDQLWLWAFYDNIYDYENNTSPYPESGFEFMQGFVATIEDTLPEDRKGKYFNYADTTLDKEEAQKLYWRGNLEKLQAIKAKYDPEDVFGNVVSVEPIA",-0.00914 nmol,0.4569 nmol,
